Measurements: PMC9352680, “A comprehensive thermodynamic model for RNA binding by the Saccharomyces cerevisiae Pumilio protein PUF4”

T1: PUF4 RNA-binding domain (Saccharomyces cerevisiae, UniProt P25339 537-888)
T1 sequence: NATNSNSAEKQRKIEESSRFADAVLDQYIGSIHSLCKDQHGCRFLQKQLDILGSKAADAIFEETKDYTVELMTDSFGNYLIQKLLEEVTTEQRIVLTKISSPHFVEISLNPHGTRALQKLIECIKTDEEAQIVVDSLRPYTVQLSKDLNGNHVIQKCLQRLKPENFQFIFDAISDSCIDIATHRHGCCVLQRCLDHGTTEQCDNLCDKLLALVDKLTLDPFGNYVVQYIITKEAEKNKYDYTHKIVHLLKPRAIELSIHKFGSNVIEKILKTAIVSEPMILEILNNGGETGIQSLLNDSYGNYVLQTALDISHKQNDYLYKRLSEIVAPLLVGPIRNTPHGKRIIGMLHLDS

B1: Id_ii_S2_P3E.2_K3.1_C3.2_[C-2G]_[T-1G]_H3.1_A3.1_F3.1_T3.2_[T9A]_[A10G] (ssRNA)
RNA: UUUGAUUAAUAUGAUAUCGUUCUUUCUGGUGUAUAUAAGUUCUUUCUCGAUAUCAUAUUAAUCUUU
B2: Id_ii_S2_P3E.2_K3.1_C3.2_[C-2G]_[T-1C]_H3.1_A3.1_F3.1_T3.2_[T9C]_[A10G] (ssRNA)
RNA: UUUGAUUAAUAUGAUAUCGUUCUUUCUGCUGUAUAUACGUUCUUUCUCGAUAUCAUAUUAAUCUUU
B3: Id_ii_S2_P3E.2_K3.1_C3.2_[C-2G]_[T-1G]_H3.1_A3.1_F3.1_T3.2_[A10G] (ssRNA)
RNA: UUUGAUUAAUAUGAUAUCGUUCUUUCUGGUGUAUAUAUGUUCUUUCUCGAUAUCAUAUUAAUCUUU
B4: Id_ii_S2_P3E.2_K3.1_C3.2_[C-2G]_[T-1G]_H3.1_A3.1_F3.1_T3.2_[T9A]_[A10T] (ssRNA)
RNA: UUUGAUUAAUAUGAUAUCGUUCUUUCUGGUGUAUAUAAUUUCUUUCUCGAUAUCAUAUUAAUCUUU

target: T1, PUF4 RNA-binding domain; assay: Mg; RNA-MaP; 20 mM Na-HEPES pH 7.4, 30 mM KOAc, 0.75 mM MgCl2, 0.1% Tween-20, 5% glycerol, 0.1 mg/mL BSA, 2 mM DTT; 25 C; 0.0125-409.6 nM protein; settings: tags: N-His6-TEV cleaved; C-SNAP kept, Cy3B-labelled; label: tethered on chip by stalled RNA polymerase

Binder	Kd [nM]
UCUCUUAAACACUUAUUAUAUCUCUU (ssRNA) [Id_ii_S1_P5E.4_K5.3_C5.2_[C-2A]_[T-1A]_H5.3_A5.1_F5.1_T5.2]	> 2300
UCUCUUCAACACUUAUUAGAUCUCUU (ssRNA) [Id_ii_S1_P5E.4_K5.3_C5.2_[T-1A]_H5.3_A5.1_F5.1_T5.2_[T11G]]	> 2300
UCUCUUCGACACUUAUUAUCUCUCUU (ssRNA) [Id_ii_S1_P5E.4_K5.3_C5.2_[T-1G]_H5.3_A5.1_F5.1_T5.2_[A12C]]	> 2300
UCUCUUCGACACUUAUUAAAUCUCUU (ssRNA) [Id_ii_S1_P5E.4_K5.3_C5.2_[T-1G]_H5.3_A5.1_F5.1_T5.2_[T11A]]	> 2300
UCUCUUCCACACUUAUUAAAUCUCUU (ssRNA) [Id_ii_S1_P5E.4_K5.3_C5.2_[T-1C]_H5.3_A5.1_F5.1_T5.2_[T11A]]	> 2300
UCUCUUCGACACUUAUUAUUUCUCUU (ssRNA) [Id_ii_S1_P5E.4_K5.3_C5.2_[T-1G]_H5.3_A5.1_F5.1_T5.2_[A12T]]	> 2300
UCUCUUAUACACUUAUUAUCUCUCUU (ssRNA) [Id_ii_S1_P5E.4_K5.3_C5.2_[C-2A]_H5.3_A5.1_F5.1_T5.2_[A12C]]	435
UCUCUUUGUAUUAUACUCUCUU (ssRNA) [Ic_S1_P5E.1_K5.1_C5.1_H5.1_A5.1_F5.1_[T9A]_[A10C]_T5.1]	2.48
UCUCUUCUACACUUAUUACCUCUCUU (ssRNA) [Id_ii_S1_P5E.4_K5.3_C5.2_H5.3_A5.1_F5.1_T5.2_[T11C]_[A12C]]	> 2300
UCUCUUAUACACUUAUUACUUCUCUU (ssRNA) [Id_ii_S1_P5E.4_K5.3_C5.2_[C-2A]_H5.3_A5.1_F5.1_T5.2_[T11C]_[A12T]]	666
UCUCUUAUACACUUAUUAUAUCUCUU (ssRNA) [Id_ii_S1_P5E.4_K5.3_C5.2_[C-2A]_H5.3_A5.1_F5.1_T5.2]	330
UCUCUUCCACACUUAUUACGUCUCUU (ssRNA) [Id_ii_S1_P5E.4_K5.3_C5.2_[T-1C]_H5.3_A5.1_F5.1_T5.2_[T11C]_[A12G]]	> 2300
UCUCUUUGUAUUAUCCUCUCUU (ssRNA) [Ib_S1_P5E.1_K5.1_C5.1_H5.1_A5.1_F5.1_[T9C]_[A10C]_T5.1]	26.8
UCUCUUCCACACUUAUUAUAUCUCUU (ssRNA) [Id_ii_S1_P5E.4_K5.3_C5.2_[T-1C]_H5.3_A5.1_F5.1_T5.2]	> 2300
UCUCUUCAACACUUAUUAUCUCUCUU (ssRNA) [Id_ii_S1_P5E.4_K5.3_C5.2_[T-1A]_H5.3_A5.1_F5.1_T5.2_[A12C]]	> 2300
UCUCUUCAACACUUAUUAACUCUCUU (ssRNA) [Id_ii_S1_P5E.4_K5.3_C5.2_[T-1A]_H5.3_A5.1_F5.1_T5.2_[T11A]_[A12C]]	> 2300
UCUCUUCCACACUUAUUAGCUCUCUU (ssRNA) [Id_ii_S1_P5E.4_K5.3_C5.2_[T-1C]_H5.3_A5.1_F5.1_T5.2_[T11G]_[A12C]]	> 2300
UCUCUUAUACACUUAUUAUUUCUCUU (ssRNA) [Id_ii_S1_P5E.4_K5.3_C5.2_[C-2A]_H5.3_A5.1_F5.1_T5.2_[A12T]]	517
UCUCUUCCACACUUAUUACUUCUCUU (ssRNA) [Id_ii_S1_P5E.4_K5.3_C5.2_[T-1C]_H5.3_A5.1_F5.1_T5.2_[T11C]_[A12T]]	> 2300
UCUCUUCCACACUUAUUAACUCUCUU (ssRNA) [Id_ii_S1_P5E.4_K5.3_C5.2_[T-1C]_H5.3_A5.1_F5.1_T5.2_[T11A]_[A12C]]	> 2300
UCUCUUAUACACUUAUUACAUCUCUU (ssRNA) [Id_ii_S1_P5E.4_K5.3_C5.2_[C-2A]_H5.3_A5.1_F5.1_T5.2_[T11C]]	489
B1	11.8
B2	20.2
B3	5.15

Binder	Kd [nM]
B4	3.82
UCUCUUAUACACUUAUUAGCUCUCUU (ssRNA) [Id_ii_S1_P5E.4_K5.3_C5.2_[C-2A]_H5.3_A5.1_F5.1_T5.2_[T11G]_[A12C]]	647
UCUCUUCCACACUUAUUAAUUCUCUU (ssRNA) [Id_ii_S1_P5E.4_K5.3_C5.2_[T-1C]_H5.3_A5.1_F5.1_T5.2_[T11A]_[A12T]]	> 2300
UCUCUUAUACACUUAUUACGUCUCUU (ssRNA) [Id_ii_S1_P5E.4_K5.3_C5.2_[C-2A]_H5.3_A5.1_F5.1_T5.2_[T11C]_[A12G]]	907
UCUCUUCGACACUUAUUAAUUCUCUU (ssRNA) [Id_ii_S1_P5E.4_K5.3_C5.2_[T-1G]_H5.3_A5.1_F5.1_T5.2_[T11A]_[A12T]]	> 2300
UCUCUUCAACACUUAUUAGCUCUCUU (ssRNA) [Id_ii_S1_P5E.4_K5.3_C5.2_[T-1A]_H5.3_A5.1_F5.1_T5.2_[T11G]_[A12C]]	> 2300
UCUCUUCAACACUUAUUAAUUCUCUU (ssRNA) [Id_ii_S1_P5E.4_K5.3_C5.2_[T-1A]_H5.3_A5.1_F5.1_T5.2_[T11A]_[A12T]]	> 2300
UCUCUUCCACACUUAUUACAUCUCUU (ssRNA) [Id_ii_S1_P5E.4_K5.3_C5.2_[T-1C]_H5.3_A5.1_F5.1_T5.2_[T11C]]	> 2300
UCUCUUAUACACUUAUUAAUUCUCUU (ssRNA) [Id_ii_S1_P5E.4_K5.3_C5.2_[C-2A]_H5.3_A5.1_F5.1_T5.2_[T11A]_[A12T]]	517
UCUCUUCAACACUUAUUACCUCUCUU (ssRNA) [Id_ii_S1_P5E.4_K5.3_C5.2_[T-1A]_H5.3_A5.1_F5.1_T5.2_[T11C]_[A12C]]	> 2300
UCUCUUCGACACUUAUUAACUCUCUU (ssRNA) [Id_ii_S1_P5E.4_K5.3_C5.2_[T-1G]_H5.3_A5.1_F5.1_T5.2_[T11A]_[A12C]]	> 2300
UCUCUUCGACACUUAUUACUUCUCUU (ssRNA) [Id_ii_S1_P5E.4_K5.3_C5.2_[T-1G]_H5.3_A5.1_F5.1_T5.2_[T11C]_[A12T]]	> 2300
UCUCUUAAACACUUAUUAUUUCUCUU (ssRNA) [Id_ii_S1_P5E.4_K5.3_C5.2_[C-2A]_[T-1A]_H5.3_A5.1_F5.1_T5.2_[A12T]]	> 2300
UCUCUUCAACACUUAUUACAUCUCUU (ssRNA) [Id_ii_S1_P5E.4_K5.3_C5.2_[T-1A]_H5.3_A5.1_F5.1_T5.2_[T11C]]	> 2300
UCUCUUCCACACUUAUUACCUCUCUU (ssRNA) [Id_ii_S1_P5E.4_K5.3_C5.2_[T-1C]_H5.3_A5.1_F5.1_T5.2_[T11C]_[A12C]]	> 2300
UCUCUUUGUAUUAUCUUCUCUU (ssRNA) [Ic_S1_P5E.1_K5.1_C5.1_H5.1_A5.1_F5.1_[T9C]_[A10T]_T5.1]	18
UCUCUUCAACACUUAUUAUGUCUCUU (ssRNA) [Id_ii_S1_P5E.4_K5.3_C5.2_[T-1A]_H5.3_A5.1_F5.1_T5.2_[A12G]]	> 2300
UCUCUUAUACACUUAUUAAAUCUCUU (ssRNA) [Id_ii_S1_P5E.4_K5.3_C5.2_[C-2A]_H5.3_A5.1_F5.1_T5.2_[T11A]]	744
UCUCUUAUACACUUAUUACCUCUCUU (ssRNA) [Id_ii_S1_P5E.4_K5.3_C5.2_[C-2A]_H5.3_A5.1_F5.1_T5.2_[T11C]_[A12C]]	606
UCUCUUUGUAUUAUAGUCUCUU (ssRNA) [Ic_S1_P5E.1_K5.1_C5.1_H5.1_A5.1_F5.1_[T9A]_[A10G]_T5.1]	0.924
UCUCUUCUACACUUAUUAUAUCUCUU (ssRNA) [Id_ii_S1_P5E.4_K5.3_C5.2_H5.3_A5.1_F5.1_T5.2]	> 2300
UCUCUUCAACACUUAUUAAAUCUCUU (ssRNA) [Id_ii_S1_P5E.4_K5.3_C5.2_[T-1A]_H5.3_A5.1_F5.1_T5.2_[T11A]]	> 2300
UCUCUUAUACACUUAUUAACUCUCUU (ssRNA) [Id_ii_S1_P5E.4_K5.3_C5.2_[C-2A]_H5.3_A5.1_F5.1_T5.2_[T11A]_[A12C]]	464
